These results are taken from the supplement of paper PMC10724198.

± gives the standard deviation of the averaged measurements.
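Further: PSI is a weighted mean of sequencing reads over stability bins, variants kept only with over 10 reads, mCherry proximal and sfGFP distal, peptide attached via GGGS linker.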

In this data set the test system is Saccharomyces cerevisiae. Kind of data set: protein stability index of tFT-peptide fusion (C-terminal peptide) (PSI (0-1 scale)); higher = more stable (slower turnover). To be noted: genetic background: wild type; temperature: 30 C. As to the method:
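Multiplexed protein stability (MPS) profiling in S. cerevisiae. Random 12-aa peptides (tFT-X12 library) are fused to the C-terminus of a sfGFP-mCherry tandem fluorescent timer, after mCherry and a GGGS linker. Cells are FACS-sorted into 8 mCherry/sfGFP bins and deep-sequenced. The protein stability index (PSI) is the read-weighted bin average, scaled from 0 (unstable) to 1 (stable). Only peptides with >10 reads are reported; cells were grown at 30 °C in SC-His with glucose.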
In turn, ERGGLGLSRCVS yielded a protein stability index of 0.663 ± 0.077.

Take ERHTASGHLLFV: the protein stability index was found to be 0.729 ± 0.14.

Sequence ERLKRNKKSTNG yielded a protein stability index of 0.726 ± 0.018.

As to ERMLHGTATSVW, the protein stability index was 0.736 ± 0.046.

In the case of ERRGRDRSQTLR, the protein stability index was found to be 0.715 ± 0.014.

ERRKKKRGQETQ displayed a protein stability index of 0.655 ± 0.12.

ERRPTYFFHDHE: the protein stability index worked out at 0.693 ± 0.055.

ERRPYVAGRRRF showed a protein stability index of 0.6722 ± 0.0049.

Sequence ERSQTKIANDKK registered a protein stability index of 0.719 ± 0.042.

ERSVSDSHERID displayed a protein stability index of 0.678 ± 0.05.

ESASSLNFTSLM had a protein stability index of 0.731 ± 0.053.

Take ESCIKGCSGVVS: the protein stability index came to 0.651 ± 0.06.

Consider ESCLVSKFDVIV, for which the protein stability index is 0.656 ± 0.052.

On to ESIEVGTGDWGG, for which the protein stability index is 0.673 ± 0.053.

ESKERKTRKLKK showed a protein stability index of 0.677 ± 0.048.

ESLAKLPLRRPR yielded a protein stability index of 0.63 ± 0.011.

ESLFFPFAFSSV: the protein stability index is 0.809 ± 0.13.

Regarding ESQYAIFGHDIW, the protein stability index worked out at 0.709 ± 0.011.

ESRVLYGLCLWC: the protein stability index was found to be 0.596 ± 0.028.

ESSQLELRGGGR came in with a protein stability index of 0.725 ± 0.0047.

In turn, ESVVKNDVTYVQ gave a protein stability index of 0.691 ± 0.041.

Turning to ETEGSSSLGTRI, the protein stability index is 0.661 ± 0.021.

In turn, ETHRANTRMERL returned a protein stability index of 0.726 ± 0.049.

The sequence ETKEAKKKTIDS gave a protein stability index of 0.7217 ± 0.0065.

Turning to ETLEKYGDPMRD, the protein stability index came to 0.624 ± 0.0088.

As for ETSRTYGNFPIT, the protein stability index came out at 0.774 ± 0.11.

As to EVCTFPGSIRSS, the protein stability index was found to be 0.521 ± 0.023.

In the case of EVGHLILYKIGC, the protein stability index was 0.648 ± 0.017.

Take EVGLGAAGLSGP: the protein stability index came out at 0.749 ± 0.031.

The sequence EVGVRCRVGVWV gave a protein stability index of 0.567 ± 0.029.

EVIRFMEKLPFR showed a protein stability index of 0.589 ± 0.025.

Regarding EVYTWTGNMWNI, the protein stability index came to 0.673 ± 0.095.

With EWGAGGGVWGLG, the protein stability index turned out to be 0.7684 ± 0.0069.

In turn, EWMIHQFCRVPV returned a protein stability index of 0.62 ± 0.0097.

In turn, EWVTRQFEGWEG gave a protein stability index of 0.7474 ± 0.0021.

In turn, EYFLGPLVRLGR yielded a protein stability index of 0.762 ± 0.11.

For EYRTAIYFQSLL, the protein stability index is 0.701 ± 0.076.

FAALACKSRLEF came in with a protein stability index of 0.685 ± 0.03.

Regarding FAFQAHWGCRDF, the protein stability index was determined as 0.703 ± 0.053.

FAHSPPPHLSVR gave a protein stability index of 0.624 ± 0.014.

FAISPCVSLAFF came in with a protein stability index of 0.642 ± 0.05.

The sequence FALSSLTFPLPT came in with a protein stability index of 0.744 ± 0.094.

Sequence FALWAGGTWFRT showed a protein stability index of 0.656 ± 0.013.

FARLTSSQGGKD displayed a protein stability index of 0.68 ± 0.025.

FAVLGGGGGGGW returned a protein stability index of 0.711 ± 0.0097.

The sequence FCAVRYLVEGRV had a protein stability index of 0.533 ± 0.0064.

For FCIDSLNSFCFV, the protein stability index stood at 0.643 ± 0.057.

The sequence FCLSIFYRAFFD registered a protein stability index of 0.537 ± 0.024.

With FCLSVVELRGLM, the protein stability index was 0.672 ± 0.049.

Sequence FCRTSGSVGDHV yielded a protein stability index of 0.721 ± 0.017.

Take FCYVEDLSVSVD: the protein stability index is 0.611 ± 0.0068.

For FDNPFQATTATK, the protein stability index was 0.823 ± 0.16.

As for FDVYIKVRGGDI, the protein stability index was found to be 0.64 ± 0.024.

With FEDIPSMEYRSI, the protein stability index was determined as 0.702 ± 0.05.

Sequence FEHFKCRRRPVI came in with a protein stability index of 0.723 ± 0.044.

FETGPGSCTACA: the protein stability index was 0.68 ± 0.0099.

For the sequence FFFECPCWLGVF, the protein stability index was 0.542 ± 0.019.

Take FFGGAGVTEGLG: the protein stability index is 0.683 ± 0.043.

In turn, FFLLLCSSCFGV came in with a protein stability index of 0.583 ± 0.021.

The sequence FFNFVYYFTTPR had a protein stability index of 0.635 ± 0.019.

For FFPFFLSFSPPF, the protein stability index amounted to 0.708 ± 0.023.

With FFPLPPSSPPSP, the protein stability index amounted to 0.7184 ± 0.0069.

Consider FFPPAHFAPQPA, for which the protein stability index was found to be 0.719 ± 0.015.

Sequence FFPPLLSFPPTD yielded a protein stability index of 0.7189 ± 0.0044.
